The source of these data is patent US8653023.

This series has as its system protein phosphatase 2A (PP2A), endogenous, in N27 cell lysate.

Consider recombinant pure PKCδ, for which the “32P-kinase assay: phosphorylation of immunoprecipitated PP2A” value is on record as “PP2A immunoprecipitated from N27 cells was effectively phosphorylated by PKCδ immunoprecipitates as well as by recombinant pure PKCδ”.
